Reference: patent US20190062448A1, “ANTI-CD39 ANTIBODIES, COMPOSITIONS COMPRISING ANTI-CD39 ANTIBODIES AND METHODS OF USING ANTI-CD39 ANTIBODIES” (Tizona Therapeutics, priority 2017, published 2019)
“Also recorded” adds a separate entry of the source.

T1: human CD39 endogenously expressed on MEL-28 cells (Homo sapiens, UniProt P49961)
T1 construct: MEL-28 cells (35,000 MEL-28 cells/well) endogenously expressing human CD39; endogenous in cells; host or cells: MEL-28
T1 sequence (P49961 1-510): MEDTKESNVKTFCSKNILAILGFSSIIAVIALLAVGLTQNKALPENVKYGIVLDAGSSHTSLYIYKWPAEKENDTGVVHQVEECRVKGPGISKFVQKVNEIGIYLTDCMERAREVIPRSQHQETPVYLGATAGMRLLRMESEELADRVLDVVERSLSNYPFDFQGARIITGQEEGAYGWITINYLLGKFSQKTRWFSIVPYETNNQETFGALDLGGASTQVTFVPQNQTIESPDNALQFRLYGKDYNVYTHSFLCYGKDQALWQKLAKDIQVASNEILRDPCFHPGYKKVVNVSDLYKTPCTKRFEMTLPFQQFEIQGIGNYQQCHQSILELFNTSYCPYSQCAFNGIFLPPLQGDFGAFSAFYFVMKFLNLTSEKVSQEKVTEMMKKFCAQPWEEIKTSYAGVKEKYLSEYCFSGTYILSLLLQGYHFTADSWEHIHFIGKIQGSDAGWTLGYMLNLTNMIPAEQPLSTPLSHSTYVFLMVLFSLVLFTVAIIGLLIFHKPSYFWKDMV

T2: hCD39-ECD (Homo sapiens, UniProt P49961)
T2 sequence (P49961 38-478 limits assumed): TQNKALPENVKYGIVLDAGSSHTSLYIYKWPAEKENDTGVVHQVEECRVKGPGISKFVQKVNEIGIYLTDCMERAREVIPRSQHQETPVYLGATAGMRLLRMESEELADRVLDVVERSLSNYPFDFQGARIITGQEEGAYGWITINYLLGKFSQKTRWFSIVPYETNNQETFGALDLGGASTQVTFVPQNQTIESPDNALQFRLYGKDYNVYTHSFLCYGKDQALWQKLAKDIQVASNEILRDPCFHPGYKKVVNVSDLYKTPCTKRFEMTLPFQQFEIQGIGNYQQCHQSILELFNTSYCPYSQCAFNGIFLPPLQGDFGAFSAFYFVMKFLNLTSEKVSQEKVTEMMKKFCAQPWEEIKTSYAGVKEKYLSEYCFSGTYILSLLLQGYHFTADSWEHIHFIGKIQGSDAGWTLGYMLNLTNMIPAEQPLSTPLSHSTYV

T3: CD39 expressed on MEL-28 cells (Homo sapiens, UniProt P49961)
T3 construct: endogenous in cells; host or cells: MEL-28
T3 sequence (P49961 1-510): T1 sequence (P49961 1-510)

B1: 27571: anti-human CD39 antibody inhibiting soluble ECD and cellular CD39 (antibody, V domains shown)
VH: QVQLVQSGAEVKKPGSSVKASCKASGGTFSSYAISWVRQAPGQGLEWMGSIIPIFGTANYAQKFRGRVTITADESTSTTYMELSSLRSEDTAVYYCARESGGYRDHRLDVWGQGTMVTVSS
VL: EIVMTQSPATLSVSPGERATLSCRASQSVGSNLAWYQQKPGQAPRLLIYGASTRATGIPARFSGSGSGTEFTLTISSLQSEDFAVYYCQQYLIWPLTFGGGTKVEIK
modifications: Synthetic VH, 27571; Synthetic VL, 27571

How the values were obtained:
[1] = molecular target: T1, human CD39 endogenously expressed on MEL-28 cells; experiment: EnzChek kinetic Pi detection assay on MEL-28 cells (initial velocity, Michaelis-Menten); format: cell-based; details: ARL 200 micromolar, isotype control 7.7
Procedure: Anti-CD39 antibodies (100 nanomolar), isotype control antibody (100 nanomolar), or ARL (200 micromolar) were incubated with MEL-28 cells endogenously expressing human CD39 for 2 hours. ATP was then added and the rate of ATP hydrolysis to Pi by CD39 was monitored using the EnzChek kinetic Pi detection assay. The initial enzyme velocity, ν0, was determined from the linear region of Pi vs. time curve over the first 15 minutes post-ATP addition. Each value is the mean of 3 replicates.
Anti-CD39 antibodies or isotype control antibody (100 nanomolar final concentration) were incubated with MEL-28 cells (35,000 MEL-28 cells/well) endogenously expressing human CD39 at 37° C. for 20 minutes in the presence of EnzChek reagents (PNP & MESG). Immediately following the addition of ATP (final concentrations ranging from 0-450 micromolar), the rate of ATP hydrolysis to free phosphate (Pi) by CD39 was monitored over time at Abs360 nm using SpectraMax i3x plate reader. The initial enzyme velocity, ν0, was determined from the linear region of Pi vs. time curve for each ATP concentration. The plot of ν0 vs. [ATP] was curve fit using non-linear regression of the Michaelis-Menten kinetic model.

hCD39-ECD [2] = molecular target: T2, hCD39-ECD; experiment: rhCD39-ECD ATPase inhibition (Malachite Green free phosphate); format: biochemical; set-up: purchased R&D Systems; details: 50 μg/ml antibody; 10 μM ATP; vs isotype or buffer controls
Procedure: 0.04-3.3 nM rhCD39-ECD (R&D Systems) was incubated with buffer, 50 μg/ml antibody or 100 μM POM-1 (Alpha Aesar) for 1 hr at 37° C. in assay buffer (25 mM Tris pH 7.5, 5 mM CaCl2) at which point ATP (Sigma) was spiked in to a final concentration of 10 μM, and the reaction further incubated for 30 min 37° C. Production of free phosphate (Pi) was subsequently measured using Malachite Green Phosphate Detection kit (R&D Systems).
(§1) Also, an 18 hour incubation was used with the antibody or isotype control. Finally, an additional 30 second baseline dip in buffer between antigen capture and dipping into a second competitor antibody for 300 seconds was used.

[3] = molecular target: T3, CD39 expressed on MEL-28 cells; experiment: Cellular CD39 ATPase inhibition (Malachite Green), Example 15; format: cell-based; details: 10-25 μg/ml antibody; 50 μM ATP; vs isotype control
Procedure: Indicated cells were incubated in assay buffer with 10-25 μg/ml antibody, 100 μM POM-1 or 100 μM ARL for 30 min at 37° C. 5% CO2. ATP was added to a final concentration of 50 μM and the incubation continued for 15 min. Supernatant was evaluated for free phosphate (Pi) using the Malachite Green Phosphate Detection kit. Palivizumab is used as an isotype control and POM-1 and ARL are non-specific small molecule inhibitors of CD39.
as §1

hCD39-ECD [4] = molecular target: T2, hCD39-ECD; experiment: Epitope binning / competition for hCD39-ECD binding by Bio-Layer Interferometry
Description: A1 antibody was immobilized onto an Anti-Mouse IgG Fc Capture (AMC) biosensor (ForteBio). Association of hCD39-ECD was then monitored for 180 seconds via Bio-Layer Interferometry (BLI) using the Octet system (ForteBio), at which point the biosensor was dipped into competitor antibody and monitored for another 180 seconds.
The methods are the same as set forth above except that instead of A1, the representative antibody was immobilized using anti-human IgG Fc Capture (AHC) biosensor.
as §1

Molecule | ATP hydrolysis rate (initial velocity) [1] [micromolar Pi per minute] | inhibition of ATPase activity of soluble hCD39 ECD (μM Pi) (hCD39-ECD [2]) | inhibition of ATPase activity of CD39 expressed on MEL-28 cells [3] | competition / binning with other anti-CD39 antibody bin groups for ECD binding (hCD39-ECD [4]) | competition with antibody A1 for binding to hCD39 ECD (hCD39-ECD [4]; A1 immobilized, ECD captured, then competitor antibody)
CCN(CC)c1ncnc2c1ncn2[C@@H]1O[C@H](COP(=O)(O)OP(=O)(O)C(Br)(Br)P(=O)(O)O)[C@@H](O)[C@H]1O [ARL] | 1.2 |  |  |  | 
B1 |  | able to inhibit the hydrolysis of ATP by hCD39 ECD | inhibit the hydrolysis of CD39 expressed on MEL-28 cells | do not compete | does not block binding; also recorded: do not compete
